Test results reported in the RNAGym collection of RNA variant scans (doi:10.7554/elife.90254).

B1: LINE1-full (parent)
chain: UACGUAGGUGGUUUUCCCCUGAUAGUGCUAAGGGGGCCUGGAAGUUUGGACUGGGCAGAGCUCAACACAGCGUGGCAAAGUGGCUGUGGCUAGACUGCCUCUCUGGAUUCCUCGUCACUCAGCAGGGCAUCUCUGAGAGAAAUGCC

Variants of: B1
Assay: self-cleavage, relative activity (ratio to wild type); higher = more cleavage; in vitro, sequencing; the parent is a self-cleaving ribozyme

Variant	self-cleavage
U26C U112C	1.36
G27A A138G	1.02
G27U U134A	1.29
U26G U119C	0.98
G25U G114A	1.13
G25A A141G	0.96
A24U U39C	1.47
U26C A142G	1.43
G27A A129G	2.07
C28A C116U	1.34
U26A U132A	1.34
U26A C103U	0.98
C28A U102A	1.12
C28A U115C	1.07
U26G A142G	1.28
G25A U26A	1.07
U26C G89A	0.03
U26C A59U	0.84
A24U A107U	1.64
A24U A107G	2.24
G25C	1.4
G25U	1.45
G25A	1.21
A24U U81C	1.24

Variant	self-cleavage
U26C G75U	0.57
C28A C131G	0.33
U26G U87C	0.3
U26G U87A	0
A24G U143C	1.12
U26C C101A	0.85
U26C C61A	0.06
U26C C61U	0.04
A24U A69G	0.53
A24U A69U	0.09
A24U U143C	1.63
U26C A136U	1.82
U26C G53U	1.2
U26A A124C	1.4
U26C G35A	1.26
U26A U47A	0.59
U26A U47C	1
U26A U47G	1.6
G25A C76U	1.35
G27A C98A	0.14
U26C C63U	0.66
U26A G72U	0.77
U26A C99U	0.37
U26A C99A	0.09

Variant	self-cleavage
U26A U85C	0.17
U26A U85A	0.16
G27C	1.11
G27A	1.07
G27U	0.97
A24U U130C	1.35
A24U U96A	0.07
A24U U96C	0.07
C28A G126A	0.66
A24U G49A	1.39
G27A U132C	1.27
U26A G40U	0.37
U26C G114U	1.49
U26A C128U	0.72
G25A U96C	0
A24U A136G	1.64
U26C U47A	1.16
U26C A77U	1.55
U26C C76U	1.87
U26C G135A	1.65
U26A A57U	0.04
G25A U115A	1.05
U26A G105U	0.57
G25A A30U	0.7

Variant	self-cleavage
U26A G88A	0.07
U26C C98U	0.11
U26C A57U	0.14
U26C A57G	1.14
A24U U45A	0.82
A24U U45C	1.19
U26A G58U	0.05
U26A C38A	0.73
U26A A64G	0.2
U26A A64U	0.23
G25U C123A	0.95
U26A G144A	1.03
U26C A124G	0.64
U26C U104A	1.13
U26C U104C	0.84
A24U U115A	1.54
A24U U115C	1.92
G25C A140G	2.41
G25A U81C	1.91
A24U A78G	1.31
U26A C116U	0.99
U26A A92U	0.61
U26A C120A	1.12
U26C A64G	0.39

Variant	self-cleavage
G27C A117G	0.95
A24U U73C	1.79
U26A U29A	1.12
U26A U29C	1.44
U26C G105A	1.32
U26A A79G	0.75
G25A A142G	1.35
G27A U87C	0.19
U26C A78G	1.1
U26A U134C	0.9
A24U U46C	1.54
U26C A31G	0.91
U26C A31C	1.23
A24U U119A	1.09
G25U U39A	0.31
A24U A59G	0.06
G27A C111A	1.16
A24U A124G	1.06
G27A A65G	0.05
G27A G55A	0.21
U26A U87A	0.01
A24U A42G	1.54
U26A G80U	1.21
U26C A43C	1.63

Variant	self-cleavage
U26C A43G	1.43
U26G C38U	0.91
A24U A140G	1.75
G25U A79G	0.77
U26A C95U	0.17
A24U A64U	0.35
A24U A64G	0.23
A24U C51U	0.84
U26C U87A	0.08
U26C U109C	1.74
A24U A129G	0.75
G25U A140G	0.7
U26C U73A	1.48
U26C U73C	1.45
A24U U62C	0.08
U26G U91C	0.44
U26A A138G	1.25
U26A A138U	0.78
G27A A59G	0.13
G27U U39C	0.63
G27A A142G	1.15
C28A G88A	0
G27A U130C	1.34
A24U A77G	2.22

Variant	self-cleavage
A24U A77U	0.93
U26A U91C	0.32
U26C U134C	0.83
U26C G72C	0
G27U A67G	0.28
U26A A31C	1.04
U26A A31G	0.81
U26C U46G	1.62
U26C U46C	1.71
U26G G34A	0.93
U26G U130A	0.79
G25U U46C	1.74
A24U	1.25
U26A A142G	1.2
U26C U132C	1.62
U26C A67U	0.06
G25A A140G	1.49
U26A A67G	0.4
A24U G80C	1.41
G27A G54A	0.59
C28A A79U	1.47
A24U A57C	0
A24U A57U	0.16
